Measured values as given in the RNAGym collection of RNA variant scans (doi:10.7554/elife.80360).

B1: HDV Ribozyme (parent)
chain: GGCCGGCAUGGUCCCAGCCUCCUCGCUGGCGCCGGCUGGGCAACAUUCCGAGGGGACCGUCCCCUCGGUAAUGGCGAAUGGGACCCA

Variants of: B1
Assay: self-cleavage, relative activity (ratio to wild type); higher = more cleavage; co-transcriptional

Point of comparison: GGCCGGCACGGUCCCAGCCUCCUAGCUGGCGCCGGCUGGGCAACAUUCCGAGGGGACCGUCCCCUCGGUAAUGGCGAAUGGGACCCA [U9C C24A], self-cleavage 0.864. Against it:
- GGCCGGCAAGGUCCCAGCCUCCUCGCUGGCGCCGGCUGGGCAACAUUCCGAGGGGACCGUCCCCUCGGUAAUGGCGAAUGGCACCCA [U9A G82C] — lower, 0.332
- GGCCGGCACGGUCCCAGCCUCCUCGCUGGCGCCGGCUGGGCAACAUUCCGAGGGGACCGUCCCCUCGGUAAUGGCGAAUGGGCCCCA [U9C A83C] — lower, 0.475
- GGCCGGCACGGUCCCAGCCUCCUCGCUGGCGCCGGCUGGGCAACAUUCCGAGGGGACCGUCCCCUCGGUAAUGGCGGAUGGGACCCA [U9C A77G] — higher, 1.05
- GGCCGGCAAGGUCCCAGCCUCCUCGCUGGCGCCGGCUGGGCAACAUUCCGAGGGGACCGUCCCCUCGGUAAUGGCGAAUGGGACGCA [U9A C85G] — higher, 1.13
- GGCCGGCAAGGUCCCAGCCUCCUCGCUGGCGCCGGCUGGGCAACAUUCCGAGGGGACCGUCCCCUCGGUAAUGGCGAAUGGGACACA [U9A C85A] — higher, 0.902
- GGCCGGCACGGUCCCAGCCUCCUCGCUGGCGCCGGCUGGGCAACAUUCCGAGGGGACCGUCCCCUCGGUGAUGGCGAAUGGGACCCA [U9C A70G] — higher, 1.25
- GGCCGGCAAGGUCCCAGCCUCCUCGCAGGCGCCGGCUGGGCAACAUUCCGAGGGGACCGUCCCCUCGGUAAUGGCGAAUGGGACCCA [U9A U27A] — higher, 0.9
- GGCCGGCAAGGUCCCAGCCUCCUCGCCGGCGCCGGCUGGGCAACAUUCCGAGGGGACCGUCCCCUCGGUAAUGGCGAAUGGGACCCA [U9A U27C] — lower, 0.795
- GGCCGGCACGGUCCCAGCCUCCUCGCUGGCGCCGGCUGGGCAACAUUCCGAGGGGACCGUCCCCUCGGUAGUGGCGAAUGGGACCCA [U9C A71G] — higher, 0.997
- GGCCGGCACGGUCCCAGCCUCCUCGCUGGCGCCGGCUGGGCAGCAUUCCGAGGGGACCGUCCCCUCGGUAAUGGCGAAUGGGACCCA [U9C A43G] — lower, 0.755
- GGCCGGCACGGUCCCAGCCUCCUCGCUGGCGCCGGCUGGGCAACAUUCCGUGGGGACCGUCCCCUCGGUAAUGGCGAAUGGGACCCA [U9C A51U] — higher, 1.06
- GGCCGGCAAGGUCCCAGACUCCUCGCUGGCGCCGGCUGGGCAACAUUCCGAGGGGACCGUCCCCUCGGUAAUGGCGAAUGGGACCCA [U9A C18A] — lower, 0.107
- GGCCGGCAAGGUCCCAGUCUCCUCGCUGGCGCCGGCUGGGCAACAUUCCGAGGGGACCGUCCCCUCGGUAAUGGCGAAUGGGACCCA [U9A C18U] — higher, 0.991
- GGCCGGCAAGGUCCCAGGCUCCUCGCUGGCGCCGGCUGGGCAACAUUCCGAGGGGACCGUCCCCUCGGUAAUGGCGAAUGGGACCCA [U9A C18G] — lower, 0.369
- GGCCGGCAAGGUCCCAGCCUCCUCGUUGGCGCCGGCUGGGCAACAUUCCGAGGGGACCGUCCCCUCGGUAAUGGCGAAUGGGACCCA [U9A C26U] — higher, 1.12
- GGCCGGCACGGUCCCAGCCUCCUCGUUGGCGCCGGCUGGGCAACAUUCCGAGGGGACCGUCCCCUCGGUAAUGGCGAAUGGGACCCA [U9C C26U] — higher, 1.17
- GGCCGGCAAGGUCCCAGCCUCCUCGCUGGCGCCGGCUGGGCAACAUUCCGAGGGGACCGUCCCCUCGGUAAAGGCGAAUGGGACCCA [U9A U72A] — lower, 0.712
- GGCCGGCACGGUCCCAGCCUCCUCGCUGGUGCCGGCUGGGCAACAUUCCGAGGGGACCGUCCCCUCGGUAAUGGCGAAUGGGACCCA [U9C C30U] — lower, 0.636
- GGCCGGCAAGGUCCCAGCCUCCUCGCUGGCGCCGGGUGGGCAACAUUCCGAGGGGACCGUCCCCUCGGUAAUGGCGAAUGGGACCCA [U9A C36G] — lower, 0.369
- GGCCGGCAAGGUCCCAGCCUCCUCGCUGGCGCCGGAUGGGCAACAUUCCGAGGGGACCGUCCCCUCGGUAAUGGCGAAUGGGACCCA [U9A C36A] — lower, 0.122
- GGCCGGCAAGGUCCCAGCCUCCUCGCUGGCGCCGGUUGGGCAACAUUCCGAGGGGACCGUCCCCUCGGUAAUGGCGAAUGGGACCCA [U9A C36U] — higher, 1.02
- GGCCGGCAAGGUCCCAGCCUCCUCGCUGGCGCCGGCUGGGCAACAUUCCGAGGGGACCGUCCCCUCGGUAAUGGCGAAUGGGAUCCA [U9A C84U] — lower, 0.749
- GGCCGGCAAGGUCCCAGCCUCCUCCCUGGCGCCGGCUGGGCAACAUUCCGAGGGGACCGUCCCCUCGGUAAUGGCGAAUGGGACCCA [U9A G25C] — lower, 0.0615
- GGCCGGCACGGUCCCAGCCUCCUGGCUGGCGCCGGCUGGGCAACAUUCCGAGGGGACCGUCCCCUCGGUAAUGGCGAAUGGGACCCA [U9C C24G] — lower, 0.0536
- GGCCGGCACGGUCCCAGCCUCCUUGCUGGCGCCGGCUGGGCAACAUUCCGAGGGGACCGUCCCCUCGGUAAUGGCGAAUGGGACCCA [U9C C24U] — higher, 1.05
- GGCCGGCAAGGUCCCAGCCUCCUCGCUGGCGCCGGCUGGGCAACAUUCCGAGGGGACCGUCCACUCGGUAAUGGCGAAUGGGACCCA [U9A C63A] — higher, 1.25
- GGCCGGCACGGUCCCAGCCUCCUCGCUGGCGGCGGCUGGGCAACAUUCCGAGGGGACCGUCCCCUCGGUAAUGGCGAAUGGGACCCA [U9C C32G] — lower, 0
- GGCCGGCAAGGUCCCAGCCUCCUCGCUGGCGCCGGCUGGGCAACAUUCCGAGGGGACCGUACCCUCGGUAAUGGCGAAUGGGACCCA [U9A C61A] — higher, 1.16
- GGCCGGCAAGGCCCCAGCCUCCUCGCUGGCGCCGGCUGGGCAACAUUCCGAGGGGACCGUCCCCUCGGUAAUGGCGAAUGGGACCCA [U9A U12C] — lower, 0.289
- GGCCGGCAAGGUCCCAGCCUCCUCGCUGGCGCCGGCUGGGCAACAUUCCGAGGGGACCGUCCCCUCGGUAAUGGCGAAUGGGACCUA [U9A C86U] — higher, 1.09
- GGCCGGCAAGGUCCCAGCCUCCUCGCUGGCGCCGGCUGGGCAACAUUCCGAGGGGACCGUCCCCUCGGUAAUGACGAAUGGGACCCA [U9A G74A] — lower, 0.491
